Experimental data published in the domain aggregation screens of Martell et al. (2025).

Assay: soluble fraction after stress (log2 fold change); higher = more stays soluble; pooled small domains, quantitative proteomics
Details: stress: 50 degC
Outline: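 Custom libraries of small protein domains were pooled and measured in a high-throughput format, with quantitative proteomics as the read-out. Each library was stressed at 50°C. The value is the log2 fold change in the amount of each protein that stays soluble after stress, used as a measure of aggregation propensity; higher values mean more of the protein stays soluble.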

Row | Sequence | soluble fraction (log2)
1 | HMSQTDQALRHLIREAWATLPQRQQQAVELAYYEGLPDTEIAARLNQPVEEVKTSIVLGMAHLREALHSY | -0.583
2 | HMSAETRSWTDAQGNQTQAVLRGFDGGDVLLQNAAGKTLRVPVKNLSEDDQRYVVLNISTLID | 0.0786
3 | HMTLGSVRTVRQVLDDGRLLVADSGGNVTLVRRAGTLAKENVNTGDRVSVDSSVRFALTLIPV | -0.0338
4 | HMSQEHTVPDYKDMEATVVYADLTQKGLNYEIAQETSPTIKEGNVTQTIPGMNEKVVSGDTITVFVSTGTG | 0.193
5 | HMNNTIKFFVSQDDDSTRLDVFLSKKIENLTRSNIKKFINLNNVKINKATINSPSKKVKLYDEIEIKFSS | -1.72
6 | HMSIAKIIGDRIRAYRNQKGWSQEYLAEKADVHHTYIGQLERGEKNATIESISKIAGALGVSLSRLFEN | -0.0998
7 | HMGERVDGVVKFFNGQKGFGFIQREDGGPDAFVHISAVERAGMAGLDEGQRVSFELELDRRGKQAAINLTP | 0.00122
8 | HMVVKLTQEQDRFIKTFNDKSLAFYYISSWGWGSFLRNGIGGVYEGDKTPFTLDEKEKMLNAIINGYEVI | -1.82
9 | HMTKTFDSPEDADNDVLAKTLFQIFGVQSVYLKENFVTITKSNSVGWHTLMEKTGHTLEEHLKF | 0.0987
10 | HMYAGTWISESGQWKYRNDDGSFAKGWFQDLDSRWYYFDANGHMLSDTLTPDGYRLGEDGAWVND | -0.638
11 | HMDPTIAAIRKKLKNWTIVEVHMTREELEQAVIDGKVDVFLSSAGFYRRLVRFGARDLATAMSPAYPD | -0.542
12 | HMAHETIDVAALRVGMFVQLDLGWLSHPFPLSSFRISSEDQIATIRALGLKRVRWSSEQSDS | -4.29
13 | HMAERLQARIDAPGVRLDKALAETFPTLSRARLQALLADGAVTRDGQTVSNGSAKAQPGLYVVALPPVA | 0.381
14 | HMAWAVRAGEGVLIRAGQPGFSATTRGTALSNGAIGEGVRVRNLGSGKEIQAWVVDKGEVETR | 0.0168
15 | HMINRMGRLVEALSHMIANTKPGARLPSEPELARQLGVSRATLREAMRTFEAQGMIHRRQGAGTFVVH | -0.402
16 | HMGEPQAWNELIGNLLRQWEARQTGWTPARKREALDRVLGAADPAALYTRLQGLLKSWTQAMTDADA | -1.7
17 | HMAVSNWQKLVSSIQTQLKILALYHGPEDGIYGPNTRSAIMLYEENIGLPVTGEPSRELLAHMLDQTD | -0.869
18 | HMNPTTQIQYNLPKSEFVSIYIYDLIGNRVKSLINNYQDAGYKSVYWDAMNDLGQPVSAGMYIY | -0.134
19 | HMNAAFMKAERLLAILNILLTGKRVSSTELAKKLEVSVRTVYRDVEALSEAGFPVYATMGRDGGFGLIEGF | -1.95
20 | HMVKDIEFSLPLEQDYYKVLISVKDSQGKRQVYEELHRAGDTVYAAVRYYGSGELEIHLNGKFYKTIK | -0.521
21 | HMSTEAFLGTEGEVVLPLLPDGLGKIRLHVADQDVELPARTGGEPIQIRERVVVVRFRDGIAEVEPAP | 0.191
22 | HMQKNKSVLFKDIVIAFNQNPKKLFNYKQLAADLDIHSEAERMLISQLLNDLKDQNFLEEVERGKYKLKL | 0.0237
23 | HMNEGETLYRLRAGDGRARLDKFLAAALPDISRTRFKGLIESGHVRVGGETITEPAYRVKSEAEVELTVPE | 0.0139
24 | HMHSPTFYVHVVGQVKVPGVYELEVGSRLFDAVIAAGGFKDDADQASVNLARPLSDGEQIVVLKLGDQ | -0.251
25 | HMEVSVPDFTGMSKSDAQNAAKEAGLTVNFEEDYDNQVPAGQVIRSNPSAGEKVKKNSSVTVTLSKGSN | -0.0943

Row | Sequence | soluble fraction (log2)
26 | HMHQVHKIDGVKYYLHLVEKGNTLYGISKQYNVSVERIEKANTEALSDGLKENQTLLIPVTSDNKKT | 0.0414
27 | HMVYLPSSIKNIPTKYGEMMVANFKMDELQANSKNGWVSMVISERREPSEKGATHYAYVNTY | 0.432
28 | HMGSVDMVYGDHKINSEHMDLSFKNQTAVLYDKVNYKSSLSMLSADKILVNFLNKYTKIEMNDENNNILIQ | 0.059
29 | HMPTTNIRAFRLREADPESVKEALSMVMPKTSIYVDARTKSVLVVGLLDELARAAEIVALIDQP | -0.79
30 | HMTIDANAIEKMVLDLIGEHPNEWGRYRDGDKKVQGFFVGQIMKATSGQADGKIVNQILSQHAEA | -0.115
31 | HMDLANLQNGQTLPLQRDVEVISIPFGKTISLSEDSVVSIMQAKGSSVSVAYEGRLYLIEGSNLDALGLEP | -0.736
32 | HMVTFDEISQSLVRDVAARRSLSVQTLHAMVDRYNAGSSINAVANQYGIDRLKLREILIELGVHVAT | 0.159
33 | HMNNPLLDKVYQLMKQNNITEEEIVRAVAMKGYFPDDMKLGDYPDDFIDGVLIGAWDQIKQFIINNISPFK | 0.0631
34 | HMKPEQIELTFSGTTAMRLDKFLAENQPGLSRAKLQAIISSGSVEVNGKVITKQAFKLDPGDLVKALIPE | 0.0295
35 | HMNPNEVQIPDLVNKTEEEAEQILKDLKLKLVVKSEEYDENIEKGKIISQDPTYKENYKIKEHSEISVIIS | 0.214
36 | HMQLSMLPYGFARRHGVLLVEQDEQPTLIHRAGITATVIAEVQRVAGQIDAWRLVDDARFDQQLAEVYRD | -1.06
37 | HMFWRKIDFYGLNLSTYRNIINIGSDYNYIYLDLGNIYKILNPITGKIIEEQDLVMNIDNINWSS | -0.0971
38 | HMSQVHYAVLFKNASAAEATEIVTYARETLGVQDIKINANGDILVPEDKVEEMRVSMSIAGFPK | 0.22
39 | HMGAPVIYELTAESAAGQRIDKYLSGQLADLSRSYLQKLLKDGGVEVNKKPVKSNYKLSEGDQIRLEVPEA | 0.207
40 | HMEHDTVLSKVFRRLREAHVPLSLDDIYQGLRKTVNNNSEIREKIVTLQERGLVAEILGPKGGKKYVAKPT | -0.105
41 | HMANYTVNAYNNGGTGGSVNMRSGPSTNDGIVVRVPHGATVTGTKSGTWSYMTYNTYTGYMMSVYLDEQS | -0.157
42 | HMGGLENNLKQARNRVGLTQSELARQAGISRQAYSSLESGAANPSTEVALRLAQALSERVESLFYLPE | -0.0819
43 | HMNDPFVILGVSKDASQSEILEAYKQKRAYYQERVFDEGDEGAQAARMLTQLDDAYQQAMELSHES | -0.151
44 | HMSSSYMVRITTSVLNVRKGPGTNYGITTKVKKGEVYTIVAEEKNGNTTWGKLKSGTGYISLGYTER | -1.29
45 | HMKHKHHIIPKHKGGTDHPDNLIELTVEQHAKAHWVEFMLDGREEDYWAWKGLEGVASKKDIIYALSKR | 0.351
46 | HMADPLQLLEQQRQDYIQAVTEYLNSHPNAKPIWDVMKKDAGYGDMKLTDIPLGILKKLYITLT | -0.356
47 | HMGSLVQTAMQAVTKHIHDNAMRVGDTLPGEGHFAETLGVSRAVMREAFGALAALKLIDVGNGRKPRVGR | -0.819
48 | HMSSRSLSYSDFIERVDAGQVSKVVMDGERLVVVGQDGTSYVTIKPPGDQVTENLSRELISKGVEVEAEPQ | 0.0107
49 | HMASIGTATVTADNLRLRSEAGTGAETLTMAPKGAEVTVEEDAGDGWYKVTYGDTEGYMSGEWLKITLA | -0.209
50 | HMATQTGTVKWFNEGKGFGFIAPDDGSKDLFAHFSEIKTTGFKTLAEAQRVEFEVTEGRKGLQASNIK | 0.0521

Row | Sequence | soluble fraction (log2)
51 | HMSLTMPKLIGMHLFQAERTLNYYGFQYKVEGPDSASVVIDQYPKEGVTVDPHYPITLKIGPSA | -0.158
52 | HMLAGKTYEVQTESGGKWTLVASYNVKSQAIQQAQALLESHKYSGVKVIAESDRKGEEVIFNEQSEVT | -0.0442
53 | HMGAGFREAIPPALDGERIDRVVSLLAYVSRNRAAGALAAGSVSVDGEVVFQRSRRVREGEELVVTGFERE | -0.97
54 | HMTTVKDRVYEILKREIVLGKLKPGEPINIAVLSTKLNISSAPLREALNMLSRDGLVTLNPRKHAAVSE | -0.499
55 | HMSGTFIGGELVKPGEPLTPMQRAAITMGLQMGNTYSPEIMEKYNNAGGSPSKEEFENYQKNKS | 0.101
56 | HMELTDSLTENAKKLYSVLTTEPRHIDDLSEEAKLSSADTLAALTELELYSLVALSEGKHYYK | 0.00954
57 | HMNTEEVGSYLKKLRLEHSFTQKELAGKLYITHQAVSNWEKGKALPDIGILSQLGDIYGISIDNLLLK | -1.79
58 | HMALYSEQVSEIEKALMSLPPKYQLVMLLLYAEDLKYEQIAEILDEPIGTVKTKIHRARKILKERF | -0.46
59 | HMSTINGIEKYLSSGLIPYIGPKTAKRIVEKFGLDTLEIIQYNPERLKEIEGIGDKKLKKIVEAFEEQG | -0.102
60 | HMDSINIDEETAKLGPNAPQIIDGIKKWGQGLVAKGVWSDEDFDEFKVFAATSSGINALNKIRKYY | 0.0428
61 | HMKNIINFIVKEDDNNKRVDMILANHDKSLSRTRVKNLILDSKLKINERIVQDPSIKTKLNDKIELEIVEP | 0.611
62 | HMATVHPIRIQGGMTTQQGGKTVWLWVSDEGRLMTEDEIAGESGGTVSSRMVRGVRVLTGTGVIYG | -2.02
63 | HMVPHQPRVWTNTAGKTITAAFVRFNAAGRKVSLKLEKGRQVELPLASLSGNDVDWIKEHVPEAMSNQE | -0.142
64 | HMAPPPLAGAREALREQIRRGSLSARRGFDAYADALGLPAGTRGAHPIFAALQRLDYPQALRLLDQEPT | 0.0894
65 | HMDSKYLRIFSTLIDEMEKMSPGEQLQSERELSQRFQVSPMTVRRALHKLSTEGYTSAIPGKGTFVRK | -0.307
66 | HMEMDPKELGRQVLAKRKEKGWSQEQLGKMAEISRNYVSQIERGEADSISIKIINRLAIALGVSPSDLGE | 0.0486
67 | HMVRTIKILGIKHNINLYYKNVKVPTMNVKNQTLEIILPNKYKKFQEEQILKVLTQKLYDKIAETEIEKIK | -0.465
68 | HMAEVPDLRNKTQQEAEAELTNHNLKLGNVTEEYSATVEAGRVISQSTSYGTKVLEGSSVDITISKGPEPT | -0.0123
69 | HMTVVHRQVHLQPDQGAFRAALYSHKAVLSEQTDDQGAINLEIRLPESDFLRLLNSSGLKLQDLVP | -0.0198
70 | HMPQVALAIDEMKRELASPDIVKTLLATTFKGLSEVNMRQAMLDGMIQGHTIADFFKKDVYAIPFGSGYSL | 0.0921
71 | HMRIEYYDDEELDRYIGTPASGYREAAVEEFREILLTLDADDVPGWVRSLQLRGIEFPESLRPELYL | -0.575
72 | HMTTTYTVPKVTGMTLEEAREDPDVVGRFTIVEGEKVTSDTVPVGQIVSQEPAAHRQVGEDGLTITVNIS | 0.289
73 | HMEASVNAPMPGKIVSVSVSEGQQVNAGDVLLILEAMKMQNEITADAAGTVKAINVNAGQSVKNGDSLVIL | 0.469
74 | HMLGARSLNEAVARNLPQILAKYQLIHIAGKNGFNPELQGRGYVQYEYVDTELKDLMALADIVVSR | -1.33
75 | HMFVVVPDLIGKTINQFEEDLSELNLKYVVSDSGNFNPEFKINAVLDQSPKANSKVKDGRKIYLTLNAS | -0.432
